Measurements as given in patent US20110091994A1, “Methods for Screening Compounds for Treating and/or Preventing an Hepatitis C Virus Infection” (priority 2008, published 2011).
Like-named read-outs stand apart in the source and are kept apart here.

What was measured:
[1] = target: T1, HCV ORFs (Gal4-DB fusions) (Hepatitis C virus genotype 1b, UniProt Q9WMX2); type: binding, HCV genotype 1b, isolate con1; conditions: human protein as prey
T1 construct: expressed in transfected cells; host or cells: Saccharomyces cerevisiae MAV203 (IMAP1) / AH109 (IMAP2)
Method: (§1) HCV ORFs were transferred from pDONR223 into bait vector (pPC97) to be expressed as Gal4-DB fusions in yeast. Two different screening methods were used (IMAP1 and IMAP2). Both for IMAP1 and IMAP2 strategies and because bait constructs sometimes self-transactivate reporter genes, SD-L-H culture medium were supplemented with 3-aminotriazole (3-AT). Appropriate concentrations of this drug were determined by growing bait strains on SD-L-H medium supplemented with increasing concentrations of 3-AT. […] For IMAP1, bait vectors were introduced in MAV203 yeast strain and both human spleen and foetal brain AD-cDNA libraries (Invitrogen) were screened by transformation as described (7). All primary positive clones (selected on SD-W-L-H+3-AT) were tested by further phenotypic assay using two additional reporter genes: LacZ (X-Gal colorimetric assay) and URA3 (growth assay on 5-FOA supplemented medium). […] AD-cDNA were PCR-amplified and inserts were sequenced to identify interactors. IMAP2 screens were performed by yeast mating, using AH109 and Y187 yeast strains (Clontech (8)). Bait vectors were transformed into AH109 (bait strain) and human spleen and foetal brain AD-cDNA libraries (Invitrogen) were transformed into Y187 (prey strain). Single bait strains were mated with prey strains then diploids were plated on SD-W-L-H+3-AT medium. Positive clones were maintained onto this selective medium for 15 days to eliminate any contaminant AD-cDNA plasmid (9). AD-cDNAs were PCR amplified and inserts were sequenced.
(§2) We have developed a bioinformatic pipeline that assigns each IST to its native human genome transcript. […] Gal4 motif was searched (last 87 bases of GAL4-AD), sequences downstream of this motif were translated into peptides and aligned using BLASTP against the REFSEQ (http://www.ncbi.nlm.nih.gov/RefSeq/) human protein sequence database (release 04/2007). Low-confidence alignments (E value>10^−10, identity <80%) and premature STOP codon containing sequences were eliminated. Only in-frame proteins and high quality sequences were further considered

[2] = test system: HCV ORFs (Gal4-DB fusions); type: binding, HCV genotype 1b, isolate con1; conditions: human protein listed by gene symbol; the value names the HCV protein it interacts with
Method: as §1, §2

[3] = target: T2, HCV proteins (Hepatitis C virus genotype 1b, UniProt Q9WMX2); assay: Validation by Y2H pairwise matrices; type: binding;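 note: yeast two-hybrid pairwise tests of interactions first found in Y2H screens of HCV bait proteins against human cDNA libraries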
T2 construct: expressed in transfected cells

[4] = validation of interaction with HCV protein NS3
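Throughout, for IMAP Y2H IMAP1 (number of IST): yeast two-hybrid screens using HCV genotype 1b proteins fused to Gal4-DB as baits against prey cDNA libraries from human spleen and foetal brain, IMAP1 via transformation and IMAP2 via mating.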
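Throughout, for Interaction with viral protein: yeast two-hybrid screens using HCV genotype 1b proteins fused to Gal4-DB as baits against prey cDNA libraries from human spleen and foetal brain, IMAP1 via transformation and IMAP2 via mating.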

Molecule | IMAP Y2H IMAP1 (number of IST) ([1]; HCV protein NS3 as bait) | IMAP Y2H IMAP1 (number of IST) ([1]; HCV protein p7 as bait) | Interaction with viral protein [2] | Y2H matrices ([3]; interaction with HCV protein p7) | Y2H matrices [3, 4]
SLIT2 (protein, UniProt O94813 31-1529, looked up) Slit homolog 2 protein: QCSCSGSTVDCHGLALRSVPRNIPRNTERLDLNGNNITRITKTDFAGLRHLRVLQLMENKISTIERGAFQDLKELERLRLNRNHLQLFPELLFLGTAKLYRLDLSENQIQAIPRKAFRGAVDIKNLQLDYNQISCIEDGAFRALRDLEVLTLNNNNITRLSVASFNHMPKLRTFRLHSNNLYCDCHLAWLSDWLRQRPRVGLYTQCMGPSHLRGHNVAEVQKREFVCSGHQSFMAPSCSVLHCPAACTCSNNIVDCRGKGLTEIPTNLPETITEIRLEQNTIKVIPPGAFSPYKKLRRIDLSNNQISELAPDAFQGLRSLNSLVLYGNKITELPKSLFEGLFSLQLLLLNANKINCLRVDAFQDLHNLNLLSLYDNKLQTIAKGTFSPLRAIQTMHLAQNPFICDCHLKWLADYLHTNPIETSGARCTSPRRLANKRIGQIKSKKFRCSAKEQYFIPGTEDYRSKLSGDCFADLACPEKCRCEGTTVDCSNQKLNKIPEHIPQYTAELRLNNNEFTVLEATGIFKKLPQLRKINFSNNKITDIEEGAFEGASGVNEILLTSNRLENVQHKMFKGLESLKTLMLRSNRITCVGNDSFIGLSSVRLLSLYDNQITTVAPGAFDTLHSLSTLNLLANPFNCNCYLAWLGEWLRKKRIVTGNPRCQKPYFLKEIPIQDVAIQDFTCDDGNDDNSCSPLSRCPTECTCLDTVVRCSNKGLKVLPKGIPRDVTELYLDGNQFTLVPKELSNYKHLTLIDLSNNRISTLSNQSFSNMTQLLTLILSYNRLRCIPPRTFDGLKSLRLLSLHGNDISVVPEGAFNDLSALSHLAIGANPLYCDCNMQWLSDWVKSEYKEPGIARCAGPGEMADKLLLTTPSKKFTCQGPVDVNILAKCNPCLSNPCKNDGTCNSDPVDFYRCTCPYGFKGQDCDVPIHACISNPCKHGGTCHLKEGEEDGFWCICADGFEGENCEVNVDDCEDNDCENNSTCVDGINNYTCLCPPEYTGELCEEKLDFCAQDLNPCQHDSKCILTPKGFKCDCTPGYVGEHCDIDFDDCQDNKCKNGAHCTDAVNGYTCICPEGYSGLFCEFSPPMVLPRTSPCDNFDCQNGAQCIVRINEPICQCLPGYQGEKCEKLVSVNFINKESYLQIPSAKVRPQTNITLQIATDEDSGILLYKGDKDHIAVELYRGRVRASYDTGSHPASAIYSVETINDGNFHIVELLALDQSLSLSVDGGNPKIITNLSKQSTLNFDSPLYVGGMPGKSNVASLRQAPGQNGTSFHGCIRNLYINSELQDFQKVPMQTGILPGCEPCHKKVCAHGTCQPSSQAGFTCECQEGWMGPLCDQRTNDPCLGNKCVHGTCLPINAFSYSCKCLEGHGGVLCDEEEDLFNPCQAIKCKHGKCRLSGLGQPYCECSSGYTGDSCDREISCRGERIRDYYQKQQGYAACQTTKKVSRLECRGGCAGGQCCGPLRSKRRKYSFECTDGSSFVDEVEKVVKCGCTRCVS | 5 | 1 | NS3 | + | +
SPON1 (protein, UniProt Q9HCB6 29-807, looked up) Spondin-1: FSDETLDKVPKSEGYCSRILRAQGTRREGYTEFSLRVEGDPDFYKPGTSYRVTLSAAPPSYFRGFTLIALRENREGDKEEDHAGTFQIIDEEETQFMSNCPVAVTESTPRRRTRIQVFWIAPPAGTGCVILKASIVQKRIIYFQDEGSLTKKLCEQDSTFDGVTDKPILDCCACGTAKYRLTFYGNWSEKTHPKDYPRRANHWSAIIGGSHSKNYVLWEYGGYASEGVKQVAELGSPVKMEEEIRQQSDEVLTVIKAKAQWPAWQPLNVRAAPSAEFSVDRTRHLMSFLTMMGPSPDWNVGLSAEDLCTKECGWVQKVVQDLIPWDAGTDSGVTYESPNKPTIPQEKIRPLTSLDHPQSPFYDPEGGSITQVARVVIERIARKGEQCNIVPDNVDDIVADLAPEEKDEDDTPETCIYSNWSPWSACSSSTCDKGKRMRQRMLKAQLDLSVPCPDTQDFQPCMGPGCSDEDGSTCTMSEWITWSPCSISCGMGMRSRERYVKQFPEDGSVCTLPTEETEKCTVNEECSPSSCLMTEWGEWDECSATCGMGMKKRHRMIKMNPADGSMCKAETSQAEKCMMPECHTIPCLLSPWSEWSDCSVTCGKGMRTRQRMLKSLAELGDCNEDLEQVEKCMLPECPIDCELTEWSQWSECNKSCGKGHVIRTRMIQMEPQFGGAPCPETVQRKKCRIRKCLRNPSIQKLRWREARESRRSEQLKEESEGEQFPGCRMRPWTAWSECTKLCGGGIQERYMTVKKRFKSSQFTSCKDKKEIRACNVHPC | 1 |  | NS3 |  | +
SLIT3 (protein, UniProt O75094 34-1523, looked up) Slit homolog 3 protein: CPTKCTCSAASVDCHGLGLRAVPRGIPRNAERLDLDRNNITRITKMDFAGLKNLRVLHLEDNQVSVIERGAFQDLKQLERLRLNKNKLQVLPELLFQSTPKLTRLDLSENQIQGIPRKAFRGITDVKNLQLDNNHISCIEDGAFRALRDLEILTLNNNNISRILVTSFNHMPKIRTLRLHSNHLYCDCHLAWLSDWLRQRRTVGQFTLCMAPVHLRGFNVADVQKKEYVCPAPHSEPPSCNANSISCPSPCTCSNNIVDCRGKGLMEIPANLPEGIVEIRLEQNSIKAIPAGAFTQYKKLKRIDISKNQISDIAPDAFQGLKSLTSLVLYGNKITEIVKGLFDGLVSLQLLLLNANKINCLRVNTFQDLQNLNLLSLYDNKLQTISKGLFAPLQSIQTLHLAQNPFVCDCHLKWLADYLQDNPIETSGARCSSPRRLANKRISQIKSKKFRCSGSEDYRSRFSSECFMDLVCPEKCRCEGTIVDCSNQKLVRIPSHLPEYVTDLRLNDNEVSVLEATGIFKKLPNLRKINLSNNKIKEVREGAFDGAASVQELMLTGNQLETVHGRVFRGLSGLKTLMLRSNLIGCVSNDTFAGLSSVRLLSLYDNRITTITPGAFTTLVSLSTINLLSNPFNCNCHLAWLGKWLRKRRIVSGNPRCQKPFFLKEIPIQDVAIQDFTCDGNEESSCQLSPRCPEQCTCMETVVRCSNKGLRALPRGMPKDVTELYLEGNHLTAVPRELSALRHLTLIDLSNNSISMLTNYTFSNMSHLSTLILSYNRLRCIPVHAFNGLRSLRVLTLHGNDISSVPEGSFNDLTSLSHLALGTNPLHCDCSLRWLSEWVKAGYKEPGIARCSSPEPMADRLLLTTPTHRFQCKGPVDINIVAKCNACLSSPCKNNGTCTQDPVELYRCACPYSYKGKDCTVPINTCIQNPCQHGGTCHLSDSHKDGFSCSCPLGFEGQRCEINPDDCEDNDCENNATCVDGINNYVCICPPNYTGELCDEVIDHCVPELNLCQHEAKCIPLDKGFSCECVPGYSGKLCETDNDDCVAHKCRHGAQCVDTINGYTCTCPQGFSGPFCEHPPPMVLLQTSPCDQYECQNGAQCIVVQQEPTCRCPPGFAGPRCEKLITVNFVGKDSYVELASAKVRPQANISLQVATDKDNGILLYKGDNDPLALELYQGHVRLVYDSLSSPPTTVYSVETVNDGQFHSVELVTLNQTLNLVVDKGTPKSLGKLQKQPAVGINSPLYLGGIPTSTGLSALRQGTDRPLGGFHGCIHEVRINNELQDFKALPPQSLGVSPGCKSCTVCKHGLCRSVEKDSVVCECRPGWTGPLCDQEARDPCLGHRCHHGKCVATGTSYMCKCAEGYGGDLCDNKNDSANACSAFKCHHGQCHISDQGEPYCLCQPGFSGEHCQQENPCLGQVVREVIRRQKGYASCATASKVPIMECRGGCGPQCCQPTRSKRRKYVFQCTDGSSFVEEVERHLECGCLACS | 4 |  | NS3 |  | +
SPOCK3 (protein, UniProt Q9BQ16 22-436, looked up) Testican-3: AAAAVAAAGGRSDGGNFLDDKQWLTTISQYDKEVGQWNKFRDEVEDDYFRTWSPGKPFDQALDPAKDPCLKMKCSRHKVCIAQDSQTAVCISHRRLTHRMKEAGVDHRQWRGPILSTCKQCPVVYPSPVCGSDGHTYSFQCKLEYQACVLGKQISVKCEGHCPCPSDKPTSTSRNVKRACSDLEFREVANRLRDWFKALHESGSQNKKTKTLLRPERSRFDTSILPICKDSLGWMFNRLDTNYDLLLDQSELRSIYLDKNEQCTKAFFNSCDTYKDSLISNNEWCYCFQRQQDPPCQTELSNIQKRQGVKKLLGQYIPLCDEDGYYKPTQCHGSVGQCWCVDRYGNEVMGSRINGVADCAIDFEISGDFASGDFHEWTDDEDDEDDIMNDEDEIEDDDEDEGDDDDGGDDHDVYI | 1 |  | NS3 |  | +
SNX4 (protein, UniProt O95219 1-450, looked up) Sorting nexin-4: MEQAPPDPERQLQPAPLEPLGSPDAGLGAAVGKEAEGAGEESSGVDTMTHNNFWLKKIEISVSEAEKRTGRNAMNMQETYTAYLIETRSVEHTDGQSVLTDSLWRRYSEFELLRSYLLVYYPHIVVPPLPEKRAEFVWHKLSADNMDPDFVERRRIGLENFLLRIASHPILCRDKIFYLFLTQEGNWKETVNETGFQLKADSRLKALNATFRVKNPDKRFTDLKHYSDELQSVISHLLRVRARVADRLYGVYKVHGNYGRVFSEWSAIEKEMGDGLQSAGHHMDVYASSIDDILEDEEHYADQLKEYLFYAEALRAVCRKHELMQYDLEMAAQDLASKKQQCEELVTGTVRTFSLKGMTTKLFGQETPEQREARIKVLEEQINEGEQQLKSKNLEGREFVKNAWADIERFKEQKNRDLKEALISYAVMQISMCKKGIQVWTNAKECFSKM | 1 |  | NS3 |  | +
SRPX2 (protein, UniProt O60687 24-465, looked up) Sushi repeat-containing …: TWYAGSGYYPDESYNEVYAEEVPQAPALDYRVPRWCYTLNIQDGEATCYSPKGGNYHSSLGTRCELSCDRGFRLIGRRSVQCLPSRRWSGTAYCRQMRCHALPFITSGTYTCTNGVLLDSRCDYSCSSGYHLEGDRSRICMEDGRWSGGEPVCVDIDPPKIRCPHSREKMAEPEKLTARVYWDPPLVKDSADGTITRVTLRGPEPGSHFPEGEHVIRYTAYDRAYNRASCKFIVKVQVRRCPTLKPPQHGYLTCTSAGDNYGATCEYHCDGGYDRQGTPSRVCQSSRQWSGSPPICAPMKINVNVNSAAGLLDQFYEKQRLLIISAPDPSNRYYKMQISMLQQSTCGLDLRHVTIIELVGQPPQEVGRIREQQLSANIIEELRQFQRLTRSYFNMVLIDKQGIDRDRYMEPVTPEEIFTFIDDYLLSNQELTQRREQRDICE | 1 |  | NS3 |  | +
